From the nanobody polyreactivity screen of Harvey et al. (2022)

assay: yeast display, Sf9 membrane polyspecificity reagent, FACS + sequencing; frameworks hold sequencing errors
Method in brief: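 In a synthetic yeast display library (Saccharomyces cerevisiae BJ5465), nanobody expression was induced with galactose for 36–48 hours. FACS gates were set low and high (top ~1%) using anti-HA fluorescence for expression and streptavidin fluorescence for binding of the Sf9 membrane reagent. Each polyreactivity label is drawn from the gate of origin.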

Sequence | polyreactivity (PSR sort gate)
QVQLVESGGGLVQAGGSLRLTCAASGSIFEGNAMGWYRQAPGKESELVASISGDGSTNYADSVKGRFTISRDNAKNSVYLQMNSLKPEDTAVYYCNADTISEPGFHMDYWGQGNQVTVSS | low polyreactivity
QVQLVESGGGLVQAGGSLRLTCAASGSIFPGYAMGWYRQAPGKDRELVATITASGGSTYYADSVKGRFTISRDNAKNTVFLQMISLKPEDTAVYDCAKDRYWYFRRRGQYDYWGQGTQVTVSS | high polyreactivity
QVQLVESGGGLVQAGGSLRLTCAASGSIFQPNMGWNRHAPGKERELVASITTGTTKYADSVKGRFTISRDNAKNTVYLQMNSLKPEDTAVYYCAADLQATVYLIFGYWGQGTQVTVSS | low polyreactivity
QVQLVESGGGLVQAGGSLRLTCAASGSIFRVYAMGWYRQAPGKERELVAVISIAGRTNYADSVKGRFTISRDNAKNTVYLQMNSLKAEDTAVYYCNAGGVGVATGYDYWGQGTQVTVSS | low polyreactivity
QVQLVESGGGLVQAGGSLRLTCAASGSIFTFYAMGWYRQAPGKERELVADISFSDVSTYYADSVKGRFTISRDNAKNTVYLQMNSLKPEDTAVYYCAARPYVVSQYFDGVEFYYWGQGTQVTVSS | low polyreactivity
QVQLVESGGGLVQAGGSLRLTCAASGSIFVSYARGWYREAPGKERELVAAITSAGTPYYADSVKGRFTISRDNAKNTVYLQMNSLKPDDTAVYYCNTDASLKRTRVSPETEYGYWGQGTQVTVSS | low polyreactivity
QVQLVESGGGLVQAGGSLRLTCAASGSIFWYNAMGWYRQAPGKERELVAAIKWSGGSTFYADSVKGGFTISRDTAKNNVYLQMNSLKPEDTAVYYCNAPPLYRDEFWGQGTQVTVSS | high polyreactivity
QVQLVESGGGLVQAGGSLRLTCAASGSTFFYYAMVWYIHAPGKERELVAAITVRGTSTYYADSVKGRFTISRDIAKNTVYLQMNSLKPEDTAVYYCNTLQPYLYDYWGQGTQVTVSS | high polyreactivity
QVQLVESGGGLVQAGGSLRLTCAASGSTFGDYDMGWYRQAPGKERELVAAISNGGSTYYADSVKGRFTISRDNAKNTVYFQMNSLKPEDTAVYYCNADNVEIRSTYEYGRYLYGYWGQGTQVTVSS | low polyreactivity
QVQLVESGGGLVQAGGSLRLTCAASGSTFRKNVMGWYRQAPGKERELVARISNSGGSTNYADSVKGRFTISRDNAKITVYLQINSLKPADTAVYNCNARKYTNHATYDYWGQGTQVTVSS | high polyreactivity
QVQLVESGGGLVQAGGSLRLTCAASGSTFVINVMGWYRQAPGKERELVAAISNGGRTYADSVKGRFTISRDNAKNTVYLQMNSLKPEDTAVYYCAADVSFTQSDGRLAEYGYWGQGTQVTVSS | low polyreactivity
QVQLVESGGGLVQAGGSLRLTCAASGSTFWDNAMGWYRQAPGKERELVAAITAIGGTTYYADSVKGRFTISRDNAKNTVYLQMKSLKPEDTAVYYCAAVWSRFLISYSTGWWFEYWGQGTQVTVSS | low polyreactivity
QVQLVESGGGLVQAGGSLRLTCAASGSTFYHNAMGWYRQAPGKERELVAAITTSGGSTYYADSVKGRFTISRDNAKNTVYLQMNSLKPVDTAVYYCNVYRPYLAPYDYWGQGTQVTVSS | low polyreactivity
QVQLVESGGGLVQAGGSLRLTCAASGSTLDYYAMGWYRQAPGKERELVAAITQSGASTYYADSVKGRFTISRDNAKNPVYLQMNSLKPEDTAVYYCAAEDYTIYGGEYDYWGQGTQVTVSS | low polyreactivity
QVQLVESGGGLVQAGGSLRLTCAASGSTLKSYAMGWYRQAPGKERELVAAITRSGARTYYADSVQGRFTISRDNAKNTVYFQMNSLKPEDTAVYYCNRVGYQYGSDQEDDYWGQGTQVTVSS | high polyreactivity
QVQLVESGGGLVQAGGSLRLTCAASGSTLRYYAMGWYRQAPGKERELVAAISTGGSTYYADSVKGRFTISRDNAKITVYLQINSLKPEDTAVYYCAAEKKTKTYRYDYWGQGTQVTVSS | low polyreactivity
QVQLVESGGGLVQAGGSLRLTCAASGYTFLHYAMGWYRQPPGKERELVAAITHSGTRTYYADSVKGRFTISRDNAKNTVYLQMNSLKPEDTAVHYCAARGYGKYDYWGQGTQVTVSS | high polyreactivity
QVQLVESGGGLVQAGGSLRLTCAASGYTLGYNAMGWYRKAPGKEMELVAAITIDGSTTYADSVKGRFTISRDNAKNTVYLLMNSLKPEDTAVYYCNAEGFTSDPYDSDYWGKGTQVTVSS | low polyreactivity
QVQLVESGGGLVQAGGSLRLTCAASVFTWSYAMVWDRHATGKERELVATISDGVSTNYSDSVKGRFTISRDNAKNSVYLQMNSLKPEDTAVYYCAVRVSGPRGYDYEYWGQGTQVTVSS | low polyreactivity
QVQLVESGGGLVQAGGSLRLTCAAYGRIFRYYPMGWYRQAPGKERDLVAAINWRGTSTSYADSVKGRFTISRDIAKNTVYLQMNSLKPEETAVYYCARVAWSESDWQKMDYWGQGTQVTVSS | high polyreactivity
QVQLVESGGGLVQAGGSLRLTCADSGFIFYRYAMVWYRQAPGKERELVAAISTRGGSTFYADSVKGRFTISRDNAKNTVYLQMNSLKPEDTAVYYCATGPLRAYDYWGQGTQVTVSS | high polyreactivity
QVQLVESGGGLVQAGGSLRLTCAPSGFIFTPNAIGWYRQAPGKERELVAAISRGGGSTYYADSVKGRFTISRDNAKNTVYLQMNSLKPQDTAVYYCNARSKNGGTTFGYWGEGTQVTVSS | high polyreactivity

Sequence | polyreactivity (PSR sort gate)
QVQLVESGGGLVQAGGSLRLTCDASGRTFYQNTMGWYRQAPGKERELVAAISYRVGRTYYADSVKGRFSISSDNAKNTVYLQMNSLKPEDTAVYYCAAGVWWWTIPYEYWGQGSQVTVSS | high polyreactivity
QVQLVESGGGLVQAGGSLRLTCPASGTIFWNYAMGWYRQAPGKERELVAAISFSGGSTYYADSVKGRFTISRDNAKNTVYLQMNSLKPEDTAVYYCNADYSYVGEYDYWGQGTQVTLSS | low polyreactivity
QVQLVESGGGLVQAGGSLRLTCSASGSTFYYYAMGWYRQAPGKERELVAAITISGGSTYYADSVKGRFTISRDKAKNTVYLQLNSLKPEDTAVYYCNVDDRETRDDYWGQGTQVTVSS | low polyreactivity
QVQLVESGGGLVQAGGSLRLTGAASGRIFRSYAMGWYRQAPGKERELVASISGSTTYYADSVKGRFTISRDNAKNTVYLQMNSLKPEDTAVYYCAVKYDAWGYGYRHFDYWGQGTQVTVSS | low polyreactivity
QVQLVESGGGLVQAGGSLRLTSAASGSIFRYYTMGWYRHAPRKERELVAAISRNGGSTYYADSVKGRFTISRDNAKNSVYLQMNSLKPVDTAVYYCNADGGDWFGYVGMDYWGQGTQVTVSS | high polyreactivity
QVQLVESGGGLVQAGGSLRLTSAASVSTFYNYAMVWYRQAPGKERELVASMTWNGGSTYYADSVKGRFTISRDNAKNTVDLQMTSLKPEDTAGSYCAAEYRDQYPTYPYYRPGYDYWGQGTQVTVSS | low polyreactivity
QVQLVESGGGLVQAGGSLRLTSAGSGFTFTIYAMGWYRQAPGKERELVATISGRAGRTYYADSVKGRFTISRDNAKNTVYLQMNSLKPEDTAVYYCNAGQWRYPGLYYYWGQGSQVTVSS | high polyreactivity
QVQLVESGGGLVQAGGSLRLTSDASGFTFRSNAMGWYRQAPGKERELVAAITSRGGSTYYADSVKGRFTISRDYAKNTVYLQMNSLKPEDTAVYYCAADGRSRKFDYWGQGTQVTVSS | high polyreactivity
QVQLVESGGGLVQAGGSLRSSCASSGSIFDGNTMGWYRQAPGKERELVAAISYSGGSTYYADSVKGRFTISRDNAKNTVYLQMNSLKPEDTAVYYCAAEWYGYQEDDYWGQGTQVTVSS | low polyreactivity
QVQLVESGGGLVQAGGSLRVCCAASGRIFGNYAMGWYRQAPGKDRELVAAISGGGSTYYADSVKGRFTISRDNAKNTVYVQMNSLKPEDTAVYYCAAKPTYRGYGYGSWGQGTQVTVSS | low polyreactivity
QVQLVESGGGLVQAGGSLRVSCAASGFIFSYNAMGWYRQEPGKERELVAAMSSGGGSTYYADSVKGRFTISRDNAKNTVYLQMNSLKPEDTAVSYCAARVAYTFGYWGQGTQVTVSS | high polyreactivity
QVQLVESGGGLVQAGGSLRVSCAASGFIIIGYVMGWYRQSPGKERELVAAITSSGGSTYYADSVKGRFTISRDNAKNTVYLQMNSLKPEDTAVYYWNADIYISPLVQVSKGYDYWGQGTQVTVSS | low polyreactivity
QVQLVESGGGLVQAGGSLRVSCAASGFSFKYYAMGWYRQAPGKERELVAAITKRGGSTYYADSVKGRFTISRDNAKNTVYLQLNSLIPEDTAVYYCAADGRAYERYDYRSDYWGQGSQVTVSS | high polyreactivity
QVQLVESGGGLVQAGGSLRVSCAASGFTFHKYAMGWYRQAPGKDRELVAVISQSASSTYYADSVKGRFTISRDNAKNTVYFQMNGLKPEDTAVYYCNAKYYRYNRRNYWGQGTQVTVSS | high polyreactivity
QVQLVESGGGLVQAGGSLRVSCAASGFTFRGYAMGWYRQAPGKERELVAAIRRGVITNYADSVKGRFTISRDNAKNTVYLQMHSLKPEDTAVYYCAAGNITPYRYYHGYYQSIYDYWGQGTQVTVSS | low polyreactivity
QVQLVESGGGLVQAGGSLRVSCAASGFTFRGYAMGWYRQAPGKERELVAAIRRGVITNYADSVKGRFTISRDNAKNTVYLQMNSLKPEDTAVYYCAAGNITPYRYYHGYYQSIYDYWGQGTQVTVSS | low polyreactivity
QVQLVESGGGLVQAGGSLRVSCAASGGTFGNNDMGWYRQAPGKEWELFAAIRAAGTTYYADSVKGRFTISRDNAKNTVYLQMNSLKPEDTAVYYCIADTTGYWSYGFQYYGEDYWGQGTQVTVSS | low polyreactivity
QVQLVESGGGLVQAGGSLRVSCAASGLTFDTNAMGWYRQARGKERELVAAITDSGDSTYYADSVKGRFTISRDNAKNTVYLQMNRLKPEDSAVYYCAARRSNLAWGRRRMYYWGQGTQVTVSS | high polyreactivity
QVQLVESGGGLVQAGGSLRVSCAASGLTFSVYTRGWYRQAPGKERELVAAITTSGGRTYYADSVKGRFTISRDNAKNTVYLQMNSLKPEDTAVYYCAAVRTGDTTGTMGYWGQGTQVTVSS | high polyreactivity
QVQLVESGGGLVQAGGSLRVSCAASGNSFTGYVMGWYRQAPGKERELVAAIRSGGSTYYADSVKGRFRISRDNAKNTVYLQMTSLKPEDTAVYYCNARYRYRLRGYDYWGQGTQVTVSS | high polyreactivity
QVQLVESGGGLVQAGGSLRVSCAASGRIFGYNAMGWSRQAPVKERELDAAIRGGGSTYYADSVKGRFTISRDNAKHSVYLQMYSLKPEDTAVYYCAATSYTYVLSPYRGDYWGQGTQVTVSS | high polyreactivity
